Among the data in paper doi:10.1101/2025.09.11.675134, “Biodistribution-Driven Discovery Identifies a Glycosidase-Cleavable Linker to Reprogram Radiotheranostics” (bioRxiv, 2025) are SUV, tissue uptake and tissue to tissue ratio values, retold here.

SMILES strings stand for the structures. Where two headings read alike, the source gives them in different places.

A short description of data set [1]: PET/CT quantification of 86Y-labeled variants in AR42J xenograft mice. Conditions: athymic nude, mouse, in vivo, iv, total radioactivity, 86Y-labeled, PET/CT, AR42J xenograft mice, mean ± SD, n = 3; for SUV at 1 h: 1 h post-injection; for SUV at 4 h: 4 h post-injection; for SUV at 24 h: 24 h post-injection. Type of data set: in vivo. On the procedure:
For studies involving three variants (DOTA -TATE, DOTA-MVK(ε)-TATE, and DOTA-β-Gal-TATE), AR42J cells (5 × 10^6 cells per mouse) were subcutaneously inoculated into the right shoulder of the mice. Tumors were allowed to grow for 3 weeks, reaching a volume of 100 –200 mm³ before being used in subsequent experiments. For biodistribution or PET imaging studies, mice bearing subcutaneous AR42J tumors were administered 1.4 – 1.8 MBq (1 μg) of 111In-labeled DOTA-TATE variants or 2.7 – 4.9 MBq (1 μg) of 86Y-labeled DOTA-TATE variants via […]
tail vein injection. […]
PET imaging to assess the uptake of three 86Y-labeled DOTA-TATE variants (2.7 – 4.9 MBq, 1 μg) in the kidney and tumor was performed at 1, 4, and 24 hours post-injection (n = 3 per cohort) in mice bearing AR42J tumors using the MRS*PET/CT 120 scanner (MR Solutions, Guildford, UK). PET/CT data acquisition was managed using Preclinical Scan software (version 4.2.4.0, MR Solutions). Mice were anesthetized with 2% isoflurane, and static PET sc ans were acquired over 10 min. CT scans were obtained for attenuation correction and anatomical co-registration.
PET data were reconstructed using three-dimensional ordered-subsets expectation maximization, and were subsequently normalized, decay - and dead-time–corrected prior to analysis. PET/CT images were analyzed using MIM software (version 7.2.7, MIM Software Inc., Beachwood, OH, USA), and the quantitative evaluation of the maximum standardized uptake (SUVmax) and the average standardized uptake values (SUVmean) in the kidney and tumor were also performed. […]

Data set [2] can be described thus: Ex vivo biodistribution of 111In-labeled variants in AR42J xenograft mice. On the set-up: species or system athymic nude mice. Conditions: athymic nude, mouse, iv, 1 ug, total radioactivity, 1 h post-injection; for tissue uptake at 1 h: in vivo, AR42J tumor-bearing mice. How it is done: For studies involving three variants (DOTA -TATE, DOTA-MVK(ε)-TATE, and DOTA-β-Gal-TATE), AR42J cells (5 × 10^6 cells per mouse) were subcutaneously inoculated into the right shoulder of the mice. Tumors were allowed to grow for 3 weeks, reaching a volume of 100 –200 mm³ before being used in subsequent experiments. For biodistribution or PET imaging studies, mice bearing subcutaneous AR42J tumors were administered 1.4 – 1.8 MBq (1 μg) of 111In-labeled DOTA-TATE variants or 2.7 – 4.9 MBq (1 μg) of 86Y-labeled DOTA-TATE variants via tail vein injection. Biodistribution studies with 111In-labeled DOTA -TATE variants were performed 1 hour post -injection (n = 3 per cohort), while studies with 86Y-labeled DOTA-TATE variants were conducted at 1, 4, and 24 hours post -injection (n = 3 per cohort). Mice were euthanized by CO2 asphyxiation, and 10 tissues, including tumors, were collected. All samples were weighed and counted on a gamma counter (2480 Wizard 3, Perkin Elmer Inc., Waltham, MA, USA). Results are presented as percentage of injected activity per gram (%IA/g) and mean values ± standard deviations. […]

The mark [3] stands for this setting: 2.7–4.9 MBq (1 μg), read-out: Kidney SUVmax.

On to `C[C@@H](O)[C@H](NC(=O)[C@@H]1CSSC[C@H](NC(=O)[C@@H](Cc2ccccc2)NC(=O)CN2CCN(CC(=O)O)CCN(CC(=O)O)CCN(CC(=O)O)CC2)C(=O)N[C@@H](Cc2ccc(O)cc2)C(=O)N[C@H](Cc2c[nH]c3ccccc23)C(=O)N[C@@H](CCCCN)C(=O)N[C@@H]([C@@H](C)O)C(=O)N1)C(=O)O` [^86Y-DOTA-TATE, metal not drawn, reference compound], for which the SUV at 1 h in data set [1] (setting [3]) amounted to 0.95 ± 0.04 SUV. Also, in data set [1] (read-out: Tumor SUVmax), the SUV at 1 h turned out to be 0.85 ± 0.14 SUV and the SUV at 24 h was 0.55 ± 0.04 SUV. In data set [1] (read-out: Kidney SUVmax), the SUV at 4 h came out at 0.62 ± 0.06 SUV and the SUV at 24 h worked out at 0.41 ± 0.02 SUV.
Consider `C[C@@H](O)[C@H](NC(=O)[C@@H]1CSSC[C@H](NC(=O)[C@@H](Cc2ccccc2)NC(=O)CCCC(=O)Nc2cc(COC(=O)N(C)CCNC(=O)CN3CCN(CC(=O)O)CCN(CC(=O)O)CCN(CC(=O)O)CC3)ccc2O[C@@H]2O[C@H](CO)[C@H](O)[C@H](O)[C@H]2O)C(=O)N[C@@H](Cc2ccc(O)cc2)C(=O)N[C@H](Cc2c[nH]c3ccccc23)C(=O)N[C@@H](CCCCN)C(=O)N[C@@H]([C@@H](C)O)C(=O)N1)C(=O)O` [^86Y-DOTA-β-Gal-TATE, metal not drawn], for which the SUV at 1 h in data set [1] (setting [3]) came to 0.54 ± 0.05 SUV. Further, in data set [1] (read-out: Tumor SUVmax), the SUV at 1 h stood at 1.96 ± 0.26 SUV, the SUV at 4 h came to 1.63 ± 0.09 SUV and the SUV at 24 h worked out at 1.86 ± 0.25 SUV. In data set [1] (read-out: Kidney SUVmax), the SUV at 4 h was found to be 0.4 ± 0.02 SUV and the SUV at 24 h was 0.14 ± 0.01 SUV.
On to `C[C@@H](O)[C@H](NC(=O)[C@@H]1CSSC[C@H](NC(=O)[C@@H](Cc2ccccc2)NC(=O)CCCC(=O)Nc2cc(COC(=O)N(C)CCNC(=O)CN3CCN(CC(=O)O)CCN(CC(=O)O)CCN(CC(=O)O)CC3)ccc2O[C@@H]2O[C@H](CO)[C@H](O)[C@H](O)[C@H]2O)C(=O)N[C@@H](Cc2ccc(O)cc2)C(=O)N[C@H](Cc2c[nH]c3ccccc23)C(=O)N[C@@H](CCCCN)C(=O)N[C@@H]([C@@H](C)O)C(=O)N1)C(=O)O` [^111In-DOTA-β-Gal-TATE, metal not drawn], for which the tissue uptake at 1 h amounted to 0.56 %ID/g in data set [2] (i.v. 1 μg (1.4–1.8 MBq), ex vivo gamma counting, mean, n = 3, read-out: Blood uptake); 5.19 ± 0.18 %ID/g in data set [2] (i.v. 1 μg, ex vivo, mean (± SD), n = 3, read-out: Kidney uptake); 10.8 ± 1.11 %ID/g in data set [2] (i.v. 1 μg, ex vivo, mean (± SD), n = 3, read-out: Tumor uptake); 0.34 %ID/g in data set [2] (i.v. 1 μg, ex vivo, mean, n = 3, read-out: Femur uptake); 0.29 %ID/g in data set [2] (i.v. 1 μg, ex vivo, mean, n = 3, read-out: Heart uptake); 0.79 %ID/g in data set [2] (i.v. 1 μg, ex vivo, mean, n = 3, read-out: Intestine uptake). In addition, the tissue uptake at 1 h in data set [2] (i.v. 1 μg, ex vivo, mean, n = 3, read-out: Liver uptake) turned out to be 0.45 %ID/g; in data set [2] (i.v. 1 μg, ex vivo, mean, n = 3, read-out: Lung uptake), 0.92 %ID/g; in data set [2] (i.v. 1 μg, ex vivo, mean, n = 3, read-out: Muscle uptake), 0.17 %ID/g; in data set [2] (i.v. 1 μg, ex vivo, mean, n = 3, read-out: Spleen uptake) it was 0.21 %ID/g. For the same molecule, the tissue to tissue ratio at 1 h in data set [2] (AR42J xenografts, ex vivo, read-out: Tumor-to-kidney (T/K) ratio) was found to be 2.08.
